Measured values reported in the RNAGym collection of RNA variant scans (doi:10.1093/molbev/msab373).

B1: Azoarcus group I ribozyme (parent)
chain: GUGCCUUGCGCCGGGAAACCACGCAAGGGAUGGUGUCAAAUUCGGCGAAACCUAAGCGCCCGCCCGGGCGUAUGGCAACGCCGAGCCAAGCUUCGGCGCCUGCGCCGAUGAAGGUGUAGAGACUAGACGGCACCCACCUAAGGCAAACGCUAUGGUGAAGGCAUAGUCCAGGGAGUGGCGAAAGUCACACAAACCGG

Variants of: B1
Test: reverse-splicing fitness (ratio to wild type); higher = more active; in vitro selection; Mg2+ level not given
How it was run: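 An in vitro group I ribozyme library with randomized positions was T7-transcribed and gel-purified. In triplicate, 10 pmol RNA in EPPS pH 7.5 was reacted with 50 pmoles of a 30-nt RNA substrate for 1 h at 37 °C across several added MgCl2 levels (1–48 mM), then stopped with EDTA. Products were reverse transcribed from a substrate-complementary primer, PCR-amplified and sequenced (HiSeq 4000). Fitness is a variant's read proportion after selection over that before, normalised to wild type.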
With C82G A111U A120C A145U C169G U176C the reverse-splicing fitness was 0.0213. Variant C82G A111U A120C A145U C169G U176G has a reverse-splicing fitness of 0.00535. Work on C82G A111U A120G A145G C150U C169G U176G yielded a reverse-splicing fitness of 0.00526. C82G A111U A120G A145G C150U C169G U176A gave a reverse-splicing fitness of 0.0137. C82G A111U A120G A145G C150U C169G U176C showed a reverse-splicing fitness of 0.0192. Variant C82G A111U A120G A145U C150A C169U U176G has a reverse-splicing fitness of 0.00528. With C82G A111U A120G A145U C150A C169U U176C the reverse-splicing fitness was 0.0142. With C82G A111U A120G A145U C150A C169U U176A the reverse-splicing fitness was 0.0183. Variant C82G A111U A120G A145G C150A C169U U176G has a reverse-splicing fitness of 0.00642. Work on C82G A111U A120G A145G C150A C169U U176C yielded a reverse-splicing fitness of 0.0177. Variant C82G A111U A120G A145G C150A C169U U176A has a reverse-splicing fitness of 0.0204. For C82G A111U A120G A145U C150U C169G U176A, the reverse-splicing fitness was 0.0145. For C82G A111U A120G A145U C150U C169G U176C, the reverse-splicing fitness was 0.017. Variant C82G A111U A120G A145U C150U C169G U176G has a reverse-splicing fitness of 0.00511. In the case of C82G A111U A120G A145G C150A C169A U176C, the reverse-splicing fitness is reported as 0.0216. Work on C82G A111U A120G A145G C150A C169A U176A yielded a reverse-splicing fitness of 0.0195. C82G A111U A120G A145G C150A C169A U176G gave a reverse-splicing fitness of 0.00669. Work on C82G A111U A120G A145U C169G U176A yielded a reverse-splicing fitness of 0.0119. Work on C82G A111U A120G A145U C169G U176C yielded a reverse-splicing fitness of 0.0162. Variant C82G A111U A120G A145U C169G U176G has a reverse-splicing fitness of 0.00405. C82G A111U A120G C150A C169G gave a reverse-splicing fitness of 0.0106. With C82G A111U A120G C150A C169A the reverse-splicing fitness was 0.0117. With C82G A111U A120G C150A C169U the reverse-splicing fitness was 0.00827. For C82G A111U A120G A145U C150G C169G, the reverse-splicing fitness was 0.00774. With C82G A111U A120G A145U C150G C169U the reverse-splicing fitness was 0.00825. Variant C82G A111U A120G A145U C150G C169A has a reverse-splicing fitness of 0.00944. Work on C82G A111U A120G C150U C169U U176G yielded a reverse-splicing fitness of 0.00743. Work on C82G A111U A120G C150U C169U U176A yielded a reverse-splicing fitness of 0.0199. C82G A111U A120G C150U C169U U176C gave a reverse-splicing fitness of 0.0168. For C82G A111U A120C C150G C169G, the reverse-splicing fitness was 0.00753. Variant C82G A111U A120C C150G C169A has a reverse-splicing fitness of 0.00975. For C82G A111U A120C C150G C169U, the reverse-splicing fitness was 0.0106. Variant C82G A111U A120G A145G C150G U176A has a reverse-splicing fitness of 0.00727. In the case of C82G A111U A120G A145G C150G U176G, the reverse-splicing fitness is reported as 0.00601. For C82G A111U A120G A145G C150G U176C, the reverse-splicing fitness was 0.0109. Variant C82G A111U A120G A145C C150U U176C has a reverse-splicing fitness of 0.012. C82G A111U A120G A145C C150U U176G showed a reverse-splicing fitness of 0.00601. For C82G A111U A120G A145C C150U U176A, the reverse-splicing fitness was 0.00941. For C82G A111U A120G A145G C169G U176C, the reverse-splicing fitness was 0.0235. Variant C82G A111U A120G A145G C169G U176G has a reverse-splicing fitness of 0.00429. Variant C82G A111U A120G A145G C169G U176A has a reverse-splicing fitness of 0.0166. With C82G A111U A120G A145G C169U the reverse-splicing fitness was 0.00985.
